# Test results reported in article PMC9098913, “In vitro reconstitution of Escherichia coli divisome activation” (Nature Communications, 2022).
# B1: FtsA R286W (protein)
# chain: MIKATDRKLVVGLEIGTAKVAALVGEVLPDGMVNIIGVGSCPSRGMDKGGVNDLESVVKCVQRAIDQAELMADCQISSVYLALSGKHISCQNEIGMVPISEEEVTQEDVENVVHTAKSVRVRDEHRVLHVIPQEYAIDYQEGIKNPVGLSGVRMQAKVHLITCHNDMAKNIVKAVERCGLKVDQLIFAGLASSYSVLTEDERELGVCVVDIGGGTMDIAVYTGGALRHTKVIPYAGNVVTSDIAYAFGTPPSDAEAIKVRHGCALGSIVGKDESVEVPSVGGRPPWSLQRQTLAEVIEPRYTELLNLVNEEILQLQEKLRQQGVKHHLAAGIVLTGGAAQIEGLAACAQRVFHTQVRIGAPLNITGLTDYAQEPYYSTAVGLLHYGKESHLNGEAEVEKRVTASVGSWIKRLNSWLRKEF
# modifications: Cy3 or Cy5 at the N-terminus in the labelled form (labelled CLEPTGG peptide conjugated to the 5xGly tag by sortagging); unlabelled protein also used; left off: TwinStrep-SUMO, N-terminal, cleaved | 5x
# Assay: Diffusion coefficient (Dcoeff) of FtsA from FRAP
# Conditions: for Diffusion Coefficient, mean: Fig. 3j; for Dcoeff: Fig. S3i/S3j, summary value
# From the text: We could also use the data from these bleaching experiments to quantify the membrane-binding kinetics and diffusion of membrane-bound proteins by analysing the change of the fluorescence profile during recovery.
# Equimolar concentrations of Cy3- and Cy5-labelled FtsA, supplemented with 20% unlabelled FtsA were used to study FRET and FRAP. Five pre-bleach frames were acquired, followed by acceptor photobleaching of a rectangular ROI with 40% 641 nm laser power and a dwell size of 1 µs/pixel, 75% overlapping lines. The recovery of the signal or the increase in donor intensity were measured with either two frames or one frame per second.
# Bleaching the acceptor dye leads to an increase in the donor intensity, which can be used to quantify the Foerster Resonance energy transfer (FRET)[48]. FRET efficiency was quantified with E%=Ipost/Ipost+Ipre⋅100 , where Ipost is the intensity of the […] and Ipre is the […]. […] To extract the contribution of both processes, we adjusted a routine recently published by Gerganova et al.[33]. In short, the code provides the contribution of both modes of recovery by analysing the shape of the fluorescence recovery profile. […] Contribution of diffusion leads to a change of the slope of the outer borders of the bleached region (S4h right). Thus, by measuring the change of the slope of the border recovery, diffusion and simple on/off binding can be distinguished. We developed “FRAPdiff”, a graphical user interface, which uses the original fit routine by David Rutkowski. It can be used directly on.tiff movies with annotated bleach regions as ImageJ ROIs. In addition, we added optional bleach correction, user selectable projection axis (x or y), and optional mirroring of the recovery profiles, if bleaching was not symmetric. The original fit routine for estimating the recovery and diffusion dynamics can be found at https://github.com/davidmrutkowski/1DReflectingDiffusion. FRAPdiff is available at 10.5281/zenodo.6400639[49] under the GPLv3 open-source license.
molecule,measurement,setting,value
B1,"Diffusion Coefficient, mean",0.1 µM FtsA + N,7.25E-02 µm2/s
same,"Diffusion Coefficient, mean",0.1 µM FtsA + Z&N,2.31E-02 µm2/s
same,"Diffusion Coefficient, mean",0.1 µM FtsA + Z,5.72E-03 µm2/s
same,Diffusion Coefficient,"0.1µM FtsA alone, Mean, n=18 (WT), 6 (R286W)",0.0520
same,"Diffusion Coefficient, mean",0.1 µM FtsA alone,5.20E-02 µm2/s
same,Diffusion Coefficient,"0.1µM FtsA alone, replicate Exp.1",8.43E-02
same,Diffusion Coefficient,"0.1µM FtsA alone, replicate Exp.2",1.09E-02
same,Diffusion Coefficient,"0.1µM FtsA alone, replicate Exp.3",6.73E-03
same,Diffusion Coefficient,"0.1µM FtsA alone, replicate Exp.4",8.58E-02
same,Diffusion Coefficient,"0.1µM FtsA alone, replicate Exp.5",8.30E-02
same,Diffusion Coefficient,"0.1µM FtsA alone, replicate Exp.6",4.11E-02
same,Diffusion Coefficient,"0.1µM, + FtsN&Z, Mean, n=5 (WT), 3 (R286W)",0.0231
same,Diffusion Coefficient,"0.1µM, + FtsN&Z, replicate Exp.1",1.54E-02
same,Diffusion Coefficient,"0.1µM, + FtsN&Z, replicate Exp.2",3.28E-02
same,Diffusion Coefficient,"0.1µM, + FtsN&Z, replicate Exp.3",2.10E-02
same,Diffusion Coefficient,"0.1µM, + FtsN, Mean, n=5 (WT), 3 (R286W)",0.0725
same,Diffusion Coefficient,"0.1µM, + FtsN, replicate Exp.1",2.08E-01
same,Diffusion Coefficient,"0.1µM, + FtsN, replicate Exp.2",5.52E-03
same,Diffusion Coefficient,"0.1µM, + FtsN, replicate Exp.3",4.11E-03
same,Diffusion Coefficient,"0.1µM, + FtsZ, Mean, n=8 (WT), 4 (R286W)",0.0057
same,Diffusion Coefficient,"0.1µM, + FtsZ, replicate Exp.1",3.86E-04
same,Diffusion Coefficient,"0.1µM, + FtsZ, replicate Exp.2",2.70E-04
same,Diffusion Coefficient,"0.1µM, + FtsZ, replicate Exp.3",1.57E-02
same,Diffusion Coefficient,"0.1µM, + FtsZ, replicate Exp.4",6.48E-03
same,"Diffusion Coefficient, mean",0.2 µM FtsA + N,7.49E-02 µm2/s
same,"Diffusion Coefficient, mean",0.2 µM FtsA + Z&N,3.50E-02 µm2/s
same,"Diffusion Coefficient, mean",0.2 µM FtsA + Z,1.81E-02 µm2/s
same,Diffusion Coefficient,"0.2µM FtsA alone, Mean, n=24 (WT), 6 (R286W)",0.1536
same,"Diffusion Coefficient, mean",0.2 µM FtsA alone,1.54E-01 µm2/s
same,Diffusion Coefficient,"0.2µM FtsA alone, replicate Exp.1",5.97E-01
same,Diffusion Coefficient,"0.2µM FtsA alone, replicate Exp.2",7.31E-02
same,Diffusion Coefficient,"0.2µM FtsA alone, replicate Exp.3",7.49E-02
same,Diffusion Coefficient,"0.2µM FtsA alone, replicate Exp.4",3.26E-02
same,Diffusion Coefficient,"0.2µM FtsA alone, replicate Exp.5",1.37E-01
same,Diffusion Coefficient,"0.2µM FtsA alone, replicate Exp.6",6.07E-03
same,Diffusion Coefficient,"0.2µM, + FtsN&Z, Mean, n=8 (WT), 6 (R286W)",0.0350
same,Diffusion Coefficient,"0.2µM, + FtsN&Z, replicate Exp.1",5.92E-02
same,Diffusion Coefficient,"0.2µM, + FtsN&Z, replicate Exp.2",5.62E-02
same,Diffusion Coefficient,"0.2µM, + FtsN&Z, replicate Exp.3",3.73E-02
same,Diffusion Coefficient,"0.2µM, + FtsN&Z, replicate Exp.4",2.25E-02
same,Diffusion Coefficient,"0.2µM, + FtsN&Z, replicate Exp.5",3.21E-02
same,Diffusion Coefficient,"0.2µM, + FtsN&Z, replicate Exp.6",2.82E-03
same,Diffusion Coefficient,"0.2µM, + FtsN, Mean, n=7 (WT), 4 (R286W)",0.0749
same,Diffusion Coefficient,"0.2µM, + FtsN, replicate Exp.1",3.41E-02
same,Diffusion Coefficient,"0.2µM, + FtsN, replicate Exp.2",6.37E-02
same,Diffusion Coefficient,"0.2µM, + FtsN, replicate Exp.3",1.01E-01
same,Diffusion Coefficient,"0.2µM, + FtsN, replicate Exp.4",1.01E-01
same,Diffusion Coefficient,"0.2µM, + FtsZ, Mean, n=7 (WT), 6 (R286W)",0.0181
same,Diffusion Coefficient,"0.2µM, + FtsZ, replicate Exp.1",2.61E-02
same,Diffusion Coefficient,"0.2µM, + FtsZ, replicate Exp.2",3.49E-02
same,Diffusion Coefficient,"0.2µM, + FtsZ, replicate Exp.3",2.40E-02
same,Diffusion Coefficient,"0.2µM, + FtsZ, replicate Exp.4",1.48E-02
same,Diffusion Coefficient,"0.2µM, + FtsZ, replicate Exp.5",2.86E-04
same,Diffusion Coefficient,"0.2µM, + FtsZ, replicate Exp.6",8.41E-03
same,"Diffusion Coefficient, mean",0.4 µM FtsA + N,4.57E-02 µm2/s
same,"Diffusion Coefficient, mean",0.4 µM FtsA + Z&N,7.88E-03 µm2/s
same,"Diffusion Coefficient, mean",0.4 µM FtsA + Z,3.05E-02 µm2/s
same,Diffusion Coefficient,"0.4µM FtsA alone, Mean, n=18 (WT), 9 (R286W)",0.1352
same,"Diffusion Coefficient, mean",0.4 µM FtsA alone,1.35E-01 µm2/s
same,Diffusion Coefficient,"0.4µM FtsA alone, replicate Exp.1",1.81E-01
same,Diffusion Coefficient,"0.4µM FtsA alone, replicate Exp.2",2.05E-02
same,Diffusion Coefficient,"0.4µM FtsA alone, replicate Exp.3",2.71E-02
same,Diffusion Coefficient,"0.4µM FtsA alone, replicate Exp.4",1.05E-01
same,Diffusion Coefficient,"0.4µM FtsA alone, replicate Exp.5",1.05E-01
same,Diffusion Coefficient,"0.4µM FtsA alone, replicate Exp.6",1.63E-01
same,Diffusion Coefficient,"0.4µM FtsA alone, replicate Exp.7",2.73E-01
same,Diffusion Coefficient,"0.4µM FtsA alone, replicate Exp.8",2.14E-01
same,Diffusion Coefficient,"0.4µM FtsA alone, replicate Exp.9",1.27E-01
same,Diffusion Coefficient,"0.4 µM FtsA, FRAP, p-value […] 10^−6",0.14 ± 0.08 µm^2/s
same,Diffusion Coefficient,"0.4µM, + FtsN&Z, Mean, n=6 (WT), 9 (R286W)",0.0079
same,Diffusion Coefficient,"0.4µM, + FtsN&Z, replicate Exp.1",3.88E-02
same,Diffusion Coefficient,"0.4µM, + FtsN&Z, replicate Exp.2",8.74E-03
same,Diffusion Coefficient,"0.4µM, + FtsN&Z, replicate Exp.3",4.31E-03
same,Diffusion Coefficient,"0.4µM, + FtsN&Z, replicate Exp.4",3.80E-04
same,Diffusion Coefficient,"0.4µM, + FtsN&Z, replicate Exp.5",1.83E-02
same,Diffusion Coefficient,"0.4µM, + FtsN&Z, replicate Exp.6",1.51E-04
same,Diffusion Coefficient,"0.4µM, + FtsN&Z, replicate Exp.7",1.71E-04
same,Diffusion Coefficient,"0.4µM, + FtsN, Mean, n=5 (WT), 6 (R286W)",0.0457
same,Diffusion Coefficient,"0.4µM, + FtsN, replicate Exp.1",2.78E-02
same,Diffusion Coefficient,"0.4µM, + FtsN, replicate Exp.2",2.32E-02
same,Diffusion Coefficient,"0.4µM, + FtsN, replicate Exp.3",3.10E-02
same,Diffusion Coefficient,"0.4µM, + FtsN, replicate Exp.4",1.25E-01
same,Diffusion Coefficient,"0.4µM, + FtsN, replicate Exp.5",3.86E-02
same,Diffusion Coefficient,"0.4µM, + FtsN, replicate Exp.6",2.82E-02
same,Diffusion Coefficient,"0.4µM, + FtsZ, Mean, n=5 (WT), 8 (R286W)",0.0305
same,Diffusion Coefficient,"0.4µM, + FtsZ, replicate Exp.1",9.70E-03
same,Diffusion Coefficient,"0.4µM, + FtsZ, replicate Exp.2",1.10E-04
same,Diffusion Coefficient,"0.4µM, + FtsZ, replicate Exp.3",2.57E-02
same,Diffusion Coefficient,"0.4µM, + FtsZ, replicate Exp.4",8.47E-04
same,Diffusion Coefficient,"0.4µM, + FtsZ, replicate Exp.5",3.19E-02
same,Diffusion Coefficient,"0.4µM, + FtsZ, replicate Exp.6",1.28E-01
same,Diffusion Coefficient,"0.4µM, + FtsZ, replicate Exp.7",3.30E-03
same,Diffusion Coefficient,"0.4µM, + FtsZ, replicate Exp.8",4.40E-02
same,"Diffusion Coefficient, mean",0.8 µM FtsA + N,4.39E-02 µm2/s
same,"Diffusion Coefficient, mean",0.8 µM FtsA + Z&N,7.03E-03 µm2/s
same,"Diffusion Coefficient, mean",0.8 µM FtsA + Z,1.59E-02 µm2/s
same,Diffusion Coefficient,"0.8µM FtsA alone, Mean, n=19 (WT), 8 (R286W)",0.1136
same,"Diffusion Coefficient, mean",0.8 µM FtsA alone,1.14E-01 µm2/s
same,Diffusion Coefficient,"0.8µM FtsA alone, replicate Exp.1",2.82E-01
same,Diffusion Coefficient,"0.8µM FtsA alone, replicate Exp.2",8.82E-02
same,Diffusion Coefficient,"0.8µM FtsA alone, replicate Exp.3",6.72E-02
same,Diffusion Coefficient,"0.8µM FtsA alone, replicate Exp.4",7.30E-02
same,Diffusion Coefficient,"0.8µM FtsA alone, replicate Exp.5",1.01E-01
same,Diffusion Coefficient,"0.8µM FtsA alone, replicate Exp.6",8.47E-02
same,Diffusion Coefficient,"0.8µM FtsA alone, replicate Exp.7",1.13E-01
same,Diffusion Coefficient,"0.8µM FtsA alone, replicate Exp.8",9.93E-02
same,Diffusion Coefficient,"0.8µM, + FtsN&Z, Mean, n=5 (WT), 4 (R286W)",0.0070
same,Diffusion Coefficient,"0.8µM, + FtsN&Z, replicate Exp.1",2.90E-03
same,Diffusion Coefficient,"0.8µM, + FtsN&Z, replicate Exp.2",7.64E-03
same,Diffusion Coefficient,"0.8µM, + FtsN&Z, replicate Exp.3",1.38E-02
same,Diffusion Coefficient,"0.8µM, + FtsN&Z, replicate Exp.4",3.70E-03
same,Diffusion Coefficient,"0.8µM, + FtsN, Mean, n=4 (WT), 3 (R286W)",0.0439
same,Diffusion Coefficient,"0.8µM, + FtsN, replicate Exp.1",1.96E-02
same,Diffusion Coefficient,"0.8µM, + FtsN, replicate Exp.2",4.05E-02
same,Diffusion Coefficient,"0.8µM, + FtsN, replicate Exp.3",7.15E-02
same,Diffusion Coefficient,"0.8µM, + FtsZ, Mean, n=3 (WT), 8 (R286W)",0.0159
same,Diffusion Coefficient,"0.8µM, + FtsZ, replicate Exp.1",3.69E-02
same,Diffusion Coefficient,"0.8µM, + FtsZ, replicate Exp.2",8.95E-03
same,Diffusion Coefficient,"0.8µM, + FtsZ, replicate Exp.3",1.47E-02
same,Diffusion Coefficient,"0.8µM, + FtsZ, replicate Exp.4",3.84E-03
same,Diffusion Coefficient,"0.8µM, + FtsZ, replicate Exp.5",3.32E-03
same,Diffusion Coefficient,"0.8µM, + FtsZ, replicate Exp.6",1.93E-02
same,Diffusion Coefficient,"0.8µM, + FtsZ, replicate Exp.7",8.19E-14
same,Diffusion Coefficient,"0.8µM, + FtsZ, replicate Exp.8",4.01E-02
same,Dcoeff,0.10 µM FtsA,5.20E-02 µm2/s
same,Dcoeff,0.20 µM FtsA,6.48E-02 µm2/s
same,Dcoeff,0.40 µM FtsA,1.35E-01 µm2/s
same,Dcoeff,0.80 µM FtsA,1.14E-01 µm2/s
